In the nanobody polyreactivity screen of Harvey et al. (2022):

Assay: yeast display, Sf9 membrane polyspecificity reagent, FACS + sequencing; frameworks hold sequencing errors
Method in brief: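 After 36–48 hours of galactose induction, yeast (Saccharomyces cerevisiae BJ5465) displaying a synthetic nanobody library were stained at 4 °C for 1 hour with 10% biotinylated, detergent-solubilized Sf9 membrane reagent. Streptavidin microbeads enriched the stained cells before FACS sorting into low and high (top ~1%) gates on anti-HA and streptavidin fluorescence. Each clone's polyreactivity label reflects its gate of origin.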

Which “polyreactivity (PSR sort gate)” value does the source give for “QVQLVESGGGLVQAGGSLRLSCAASGSTFVLYAMGWYRQAPGKERELVAAITWTGGTTNYADSVKGRFTISLDNAKNTDYLQMNILQPEDTAVSYCAAKTNGRYDYWGQGTQVTVSS” here?
The value was “low polyreactivity”.

With “QVQLVESGGGLVQAGGSLRLSCAASGYIFYWYDMGWYRQAPGKEREMVAVIPTSGGSTYYADSVKGRFTISRDNAKNTVYLQMNSLKPEDTAVEYCNADSLFEYWDYDYWGQGTQVTVSS” as the sequence, how does the “polyreactivity (PSR sort gate)” value read?
The value was “low polyreactivity”.

Which “polyreactivity (PSR sort gate)” value does the source give for “QVQLVESGGGLVQAGGSLRLSCAASGFTFGYYAMGWYRQAPGKERELVAAISSRGSGTYYADSVKGRFTMSRDNAKNTVYLQLNSLKPEDTAVYYCARPSALLGYWGQGTQVTVSS” here?
The value was “low polyreactivity”.

With “QVQLVESGGGLVQAGGSLRLSCAASGSTFWFNGMGWYRQAPGKERELVAVITFSTGSTSYADSVKGRCTISRDDAKNTVYLQMNSLKPEDTAVYYCAAEYVIYYWFEWLDLDYWGQGTQVTVSS” as the sequence, how does the “polyreactivity (PSR sort gate)” value read?
The value was “high polyreactivity”.

With “QVQLVESGGGLVHAGGSLRLSCAAYGRTFKYNAMGWNRQAPGKERELVAAISSRGGSTYYADSVKGRFTISRDNAKNTVYLQMNSLKPEDTAVYYCAIATSSSEYGYDYWGQGTQVTVSS” as the sequence, how does the “polyreactivity (PSR sort gate)” value read?
The value was “high polyreactivity”.

Which “polyreactivity (PSR sort gate)” value does the source give for “QVQLVESGGGLVQAGGSLRLSCAASGSIFVFYDMGWYRQAPGKERELVATISSGGGGTYYTDSVKGRFTISRDNAKNTVYLQLNSLKPEDTAVYYCAAEGDKYGKGYGYWGQGTQVTVSS” here?
Its value is “low polyreactivity”.

For “QVQLVESGGGLVQAGGSLRLSCAASGSIFYRNAMGWYRQAPGKERELGAAISWSAARTYYADSVKGRFTISRDNAKNTVYLQMNSLKPEDTAVYYCAAYQTSRYKYEYWGQGTQVTVSS”, which “polyreactivity (PSR sort gate)” value is on record?
Its value is “high polyreactivity”.

For “QVQLQESGGGLVQAGGSLRLSCAASGNIVDADIMGWSRQAPGKERELVASITDGGSTNYADSVKGRFTISRDYAKNTVYLQMNSLKPEDTAVYYCAAIAYPDIPTYIDYDSEYFYWGQGTQVTVSS”, which “polyreactivity (PSR sort gate)” value is on record?
Its value is “low polyreactivity”.

For “QVQLVESGGGLVQAGGSLRLSCAASGGTFLGNAMGWYRQAPGKERELVADITSGGSTNYADSVKGRFTITRDNAKNTVYLQMNSLKPEDTAVYYCNARWWFQLYYYSTFAGYNYWGQGTQVTVSS”, which “polyreactivity (PSR sort gate)” value is on record?
The value was “low polyreactivity”.

Which “polyreactivity (PSR sort gate)” value does the source give for “QVQLVESGGGLVQAGGSLRLSCADSGSIFSYYAMGWYRQEPGKARELVASISRTGVSTHYADSVKGRFTISRDNAKNTVYLQMNSLKPEDNAVYYCNAKYLTWSYRYYYWGQGTQVTVSS” here?
The value was “high polyreactivity”.

With “QVQLVESGAGLVQAGGSLRLSCDASGLIFAGYAMGWYRQAPGTERELVAAITWRGGRTYADSVKGRFTISRDNAKNTVYLQINSLKPEDTAVYYCNKDPWYVFHPRGQFLFDYWGQGTQVTVSS” as the sequence, how does the “polyreactivity (PSR sort gate)” value read?
The value was “low polyreactivity”.

For “QVQLVESGGGLVQAGGSLRLSCAASGFIFAYYAMGWYRQAPGKERELVAAISSRAGRTYYADSVKGRFTISRDNAKNTVYLQMNSLKPEYTAVYYWAAPTSSSGRYHRYYYWGQGTQVTVSS”, which “polyreactivity (PSR sort gate)” value is on record?
The value was “high polyreactivity”.

With “QVQLVESGGGLVQAGGSLRLSCAASGRIFSLNAMGWYRQAPGNERELVAGNRKRGGSTYYADSVKGRFTISRDNAKNTLYLQMNSLKPEDTAVYYCAAQPALTYRFYYWGQGTQVTVSS” as the sequence, how does the “polyreactivity (PSR sort gate)” value read?
The value was “high polyreactivity”.

Which “polyreactivity (PSR sort gate)” value does the source give for “QVQLVESGGGLVQAGGSLRLSCAASGRTFSFYAMGWYRQAPGKERELVAAIRSDGGTTYYADSVKGRFTISRDNAKNTVYLQMNSLKPEDTAVYYCNTQSFYFVSYSSSRYLRYYWGQGTQVTVSS” here?
The value was “low polyreactivity”.

Which “polyreactivity (PSR sort gate)” value does the source give for “QVQLVESGGLLVQGGVSLRLSCAASGSTLYIYAMGWYRQAPGKERELVAANTWSGGRTFYADSVKGRFTISRDNAKNTVSLQMNSLTPEDTAVYYCAARILSDKTGSRYYYWGQGTQVTVSS” here?
Its value is “high polyreactivity”.

Which “polyreactivity (PSR sort gate)” value does the source give for “QVQLVESGGGLVQAGGSLRLSCAASGRTFRYYTMGWYRQAPGKERELVAAITRNGGRTYYADSVKGRFTISRDNAKNTVYLQMNSLKPEDTAVYYCAAGTYDGGYHYDYWGQGTQVTVSS” here?
The value was “high polyreactivity”.

Which “polyreactivity (PSR sort gate)” value does the source give for “QVQLVESGGGLVQAGGILRLSCAASGRIFRYYAMGWYRQAPGKERELVAGITRGGTTNYADSVKGRFTISRDNAKNTVYLQMNSLKPEDTAVYYCAAETRRGIIGYDYWGQGTKVTVSS” here?
The value was “high polyreactivity”.

For “QVQLVESGGGLVQAGGSLRLSCAASGRIFPGYAMGWYRPAPGKERELVAAISKSGVSTYYADSVKGRFTISCDNAKNTVYLQMNSLKPEDTAVYYCAAVSYSYFSRGYRTFQLAYWGQGTQVTVSS”, which “polyreactivity (PSR sort gate)” value is on record?
The value was “high polyreactivity”.

For “QVQLVESGRGLVQAGGSLRLSCAASGITFWYYAMGWYRQAPGKERELVASINRSGGSTYADSVKGRFTISRDNAKITVYLQMNSLKPEDTAVYYCAARLYSSVVRYRYGYWGQGTQVTVSS”, which “polyreactivity (PSR sort gate)” value is on record?
The value was “high polyreactivity”.

For “QVQLEESGGGLVQAGGSLRLSCAASGIIFSIYAMGLYRKAPGKERELVAAITYSGGRTYYADSVKGRFTISRDNAKNTVYLQMNSLKPEDTAVYYCAAVVYGEYYWGQGTQVTVSS”, which “polyreactivity (PSR sort gate)” value is on record?
The value was “high polyreactivity”.

With “QVQLVESGGGLVQAGGSLRLSCAASGIFYRNAMGWYRQAPGKERELVAAISWSGGSTYYADSVKGRFTISRDNAKNSVYLQMNSLKPEDTAFYYCAAVGGRYPSNVVGYYYWGQGTQVTVSS” as the sequence, how does the “polyreactivity (PSR sort gate)” value read?
Its value is “high polyreactivity”.

With “QVQLVESGGGLVQAGGSLRLSCAASGRTFRYYTMGWYRQAPGKEREFVAALSSTGGTYYADSVKGRFTISRDNAKNTVYLQMNSLKPEDTADYYCNVSSLNSYTSGTTYWGVDYWGQGTQVTVSS” as the sequence, how does the “polyreactivity (PSR sort gate)” value read?
The value was “low polyreactivity”.

For “QVQLVESGGGLVQAGGSLRLSCAASGSTFTSYAMGWYRQAPGKERELVAAIRYRGDGTYYADSVKGRCTISRDNAKNTVNLQMNSLKPEDNAVYYCAADTTLQAFIRYRPIGSYDSWGQGTKVTVSS”, which “polyreactivity (PSR sort gate)” value is on record?
The value was “low polyreactivity”.

For “QVQLVESGGGLVQAGGSLRLSCSASGLIFGNYGMGWYRQAPGKERELVAVITDDDSTTYADSVKGRFTISRDNAKNTFYLQMNSLKPEDTAVYYCNADNLLGRFDSWGQGTLVTVSS”, which “polyreactivity (PSR sort gate)” value is on record?
Its value is “low polyreactivity”.

Which “polyreactivity (PSR sort gate)” value does the source give for “QVQLVESGGGLVQAGGSLRLSCAASGRIFSNNAMGWYRQAPGKERELVASIDSGDSTTYADSVKGRFTISRDNAKNTVYLQMNSLKPEDTAVYYCNAGPAEADYDYWGQGTQVTVSS” here?
Its value is “high polyreactivity”.

Which “polyreactivity (PSR sort gate)” value does the source give for “QVQLVESGGGLVQAGGSLRLSCAASGRTFWYYTMGWYRQAPGKERELVAANTSVGSTYYADSVKGRFTISRDNAKNTVYLQMNSLKPEDTAVYYCATLYSYTHQSFDHWGQGTQVTVSS” here?
The value was “high polyreactivity”.

For “QVQHEESGGGLVQAGGSLRLSCAASGSIFRGNAMGWYRQAPGNERELVAAITRSGGRTYYADSVKGRFTISRDNAKNTVYLQMNSLKPEDTAVYYCAADYPYGSPTHFDYWGPGTQVTVSS”, which “polyreactivity (PSR sort gate)” value is on record?
The value was “high polyreactivity”.

With “QVQLVDSGGGLVQAGGSLRLSCAASGRTFPSYGMGWYRQAPGKERELVAPITGGGSTYYADSVKGRFTISRDNAKNTVYLQINSLKPEDTAVYYCAKRPYYNRHYHYRSKYDYWGLGTQVTVSS” as the sequence, how does the “polyreactivity (PSR sort gate)” value read?
Its value is “high polyreactivity”.

For “QVQLVESGGGLVQAGGSLRLSCAASGSTFPHYVMGWYRQAPGKERELVAGISWSGGSTYYADSVKGRFTISRDNAKNTVYLQMNSLKPEDTAVYYCAKVLTWRGYRYNYWGQGTQVTVSS”, which “polyreactivity (PSR sort gate)” value is on record?
The value was “low polyreactivity”.

Which “polyreactivity (PSR sort gate)” value does the source give for “QVQLVESGGGLVQAGGSLRLSCAASGLIFTPYPMGWYRQAPGKERELVAAISVSGGRTYYADSVKGRITISRDNEKNTVYLQMNSLKPEDTAVYYCAASDRYGGRDYWGQGTQVTVSS” here?
Its value is “high polyreactivity”.

Which “polyreactivity (PSR sort gate)” value does the source give for “QVQLVESGGGLVQAGGSLRLSCAASGSTFYKNAMGWYRPAPGKERELVAAISGSGGRTYYADSVKGRFTISRDNAKNTVYLQMNSLKPEDTAVYYCNAARAYYSLYYGLDYWGQGTQVTVSS” here?
Its value is “high polyreactivity”.
